Patent US20180155451A1 (published 2018)

T1: FcγRIIb (human, UniProt P31994 43-217)
T1 construct: extracellular domain; also called 2b; FcgRIIb
T1 sequence (looked up): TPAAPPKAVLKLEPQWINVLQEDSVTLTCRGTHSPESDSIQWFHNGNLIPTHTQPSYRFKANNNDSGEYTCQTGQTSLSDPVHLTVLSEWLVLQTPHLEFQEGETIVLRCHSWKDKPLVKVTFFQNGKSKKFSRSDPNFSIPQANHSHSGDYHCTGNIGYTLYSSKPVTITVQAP

B1: GpH7-A5/GpH7-B3 variant P238_06M/GpL16-k0 (antibody, human IgG1, kappa)
heavy 1: not shown
heavy 2: not shown
light: DIVMTQSPLSLPVTPGEPASISCQASESLVHSNRNTYLHWYLQKPGQSPQLLIYKVSNRFSGVPDRFSGSGSGTDFTLKISRVEAEDVGVYYCSQNTHVPPTFGQGTKVEIERTVAAPSVFIFPPSDEQLKSGTASVVCLLNNFYPREAKVQWKVDNALQSGNSQESVTEQDSKDSTYSLSSTLTLSKADYEKHKVYACEVTHQGLSSPVTKSFNRGEC
notes: also called He Ab P238_06M
B2: GpH7-A5/GpH7-B3 variant S337_18N/GpL16-k0 (antibody, human IgG1, kappa)
heavy 1: not shown
heavy 2: not shown
light: B1 light
notes: also called He Ab S337_18N
B3: GpH7-A5/GpH7-B3 variant T335_15Y/GpL16-k0 (antibody, human IgG1, kappa)
heavy 1: not shown
heavy 2: not shown
light: B1 light
notes: also called He Ab T335_15Y
B4: GpH7-A5/GpH7-B3 variant S239_10E/GpL16-k0 (antibody, human IgG1, kappa)
heavy 1: not shown
heavy 2: not shown
light: B1 light
notes: also called He Ab S239_10E
B5: GpH7-A5/GpH7-B3 variant P238_20W/GpL16-k0 (antibody, human IgG1, kappa)
heavy 1: not shown
heavy 2: not shown
light: B1 light
notes: also called He Ab P238_20W
B6: GpH7-A5/GpH7-B3 variant S337_15Y/GpL16-k0 (antibody, human IgG1, kappa)
heavy 1: not shown
heavy 2: not shown
light: B1 light
notes: also called He Ab S337_15Y
B7: GpH7-A5/GpH7-B3 variant P271_09D/GpL16-k0 (antibody, human IgG1, kappa)
heavy 1: not shown
heavy 2: not shown
light: B1 light
notes: also called He Ab P271_09D
B8: GpH7-A5/GpH7-B3 variant P238_10E/GpL16-k0 (antibody, human IgG1, kappa)
heavy 1: not shown
heavy 2: not shown
light: B1 light
notes: also called He Ab P238_10E
B9: GpH7-A5/GpH7-B3 variant T335_13S/GpL16-k0 (antibody, human IgG1, kappa)
heavy 1: not shown
heavy 2: not shown
light: B1 light
notes: also called He Ab T335_13S
B10: GpH7-A5/GpH7-B3 variant P238_09D/GpL16-k0 (antibody, human IgG1, kappa)
heavy 1: not shown
heavy 2: not shown
light: B1 light
notes: also called He Ab P238_09D
B11: GpH7-A5/GpH7-B3 variant S324_06M/GpL16-k0 (antibody, human IgG1, kappa)
heavy 1: not shown
heavy 2: not shown
light: B1 light
notes: also called He Ab S324_06M
B12: GpH7-A5/GpH7-B3 variant T335_10E/GpL16-k0 (antibody, human IgG1, kappa)
heavy 1: not shown
heavy 2: not shown
light: B1 light
notes: also called He Ab T335_10E
B13: GpH7-A5/GpH7-B3 variant S337_07I/GpL16-k0 (antibody, human IgG1, kappa)
heavy 1: not shown
heavy 2: not shown
light: B1 light
notes: also called He Ab S337_07I
B14: GpH7-A5/GpH7-B3 variant S239_03V/GpL16-k0 (antibody, human IgG1, kappa)
heavy 1: not shown
heavy 2: not shown
light: B1 light
notes: also called He Ab S239_03V
B15: GpH7-A5/GpH7-B3 variant P238_16H/GpL16-k0 (antibody, human IgG1, kappa)
heavy 1: not shown
heavy 2: not shown
light: B1 light
notes: also called He Ab P238_16H
B16: GpH7-A5/GpH7-B3 variant P331_20W/GpL16-k0 (antibody, human IgG1, kappa)
heavy 1: not shown
heavy 2: not shown
light: B1 light
notes: also called He Ab P331_20W
B17: GpH7-A5/GpH7-B3 variant V266_06M/GpL16-k0 (antibody, human IgG1, kappa)
heavy 1: not shown
heavy 2: not shown
light: B1 light
notes: also called He Ab V266_06M
B18: GpH7-A5/GpH7-B3 variant T335_16H/GpL16-k0 (antibody, human IgG1, kappa)
heavy 1: not shown
heavy 2: not shown
light: B1 light
notes: also called He Ab T335_16H
B19: GpH7-A5/GpH7-B3 variant P331_16H/GpL16-k0 (antibody, human IgG1, kappa)
heavy 1: not shown
heavy 2: not shown
light: B1 light
notes: also called He Ab P331_16H
B20: GpH7-A5/GpH7-B3 variant P331_10E/GpL16-k0 (antibody, human IgG1, kappa)
heavy 1: not shown
heavy 2: not shown
light: B1 light
notes: also called He Ab P331_10E
B21: GpH7-A5/GpH7-B3 variant S239_05P/GpL16-k0 (antibody, human IgG1, kappa)
heavy 1: not shown
heavy 2: not shown
light: B1 light
notes: also called He Ab S239_05P
B22: GpH7-A5/GpH7-B3 variant S267_19Q/GpL16-k0 (antibody, human IgG1, kappa)
heavy 1: not shown
heavy 2: not shown
light: B1 light
notes: also called He Ab S267_19Q
B23: GpH7-A5/GpH7-B3 variant S298_06M/GpL16-k0 (antibody, human IgG1, kappa)
heavy 1: not shown
heavy 2: not shown
light: B1 light
notes: also called He Ab S298_06M
B24: GpH7-A5/GpH7-B3 variant S337_20W/GpL16-k0 (antibody, human IgG1, kappa)
heavy 1: not shown
heavy 2: not shown
light: B1 light
notes: also called He Ab S337_20W
B25: GpH7-A5/GpH7-B3 variant P331_06M/GpL16-k0 (antibody, human IgG1, kappa)
heavy 1: not shown
heavy 2: not shown
light: B1 light
notes: also called He Ab P331_06M
B26: GpH7-A5/GpH7-B3 variant P238_19Q/GpL16-k0 (antibody, human IgG1, kappa)
heavy 1: not shown
heavy 2: not shown
light: B1 light
notes: also called He Ab P238_19Q

These binders were tested against T1, FcγRIIb (assay: SPR (Biacore), binding relative to GpH7-A5/GpH7-B3/GpL16-k0 = 100).
Description: Analysis of interaction between objective antibody and the FcγR was carried out using Biacore T100 (GE Healthcare). HBS-EP+ (GE Healthcare) was used as the running buffer, and the measurement temperature was set to 25° C. Chips produced by immobilizing the antigen peptide by the amine coupling method to a Series S Sencor Chip CM5 (GE Healthcare), or alternatively, chips produced by allowing preliminarily biotinylated antigen peptides to interact with and immobilize onto a Series S Sensor Chip SA (certified) (GE Healthcare) were used. Antibodies of interest were captured onto an antigen peptide-immobilized chip, and allowed to interact to each FcγR diluted with running buffer. To regenerate and repeatedly use the chip, the antibodies captured on the chip were washed off by reacting 10 mM glycine-HCl, pH 1.5.
The FcγR-binding activity of each antibody was assessed primarily using as an indicator the FcγR-binding activity and dissociation constant for FcγR.

He/Con_2b	Binder
174 % of control	B1
103 % of control	B2
108 % of control	B3
181 % of control	B4
123 % of control	B5
100 % of control	B6
120 % of control	B7
232 % of control	B8
102 % of control	B9
221 % of control	B10
112 % of control	B11
108 % of control	B12
104 % of control	B13
108 % of control	B14
115 % of control	B15
111 % of control	B16
251 % of control	B17
102 % of control	B18
116 % of control	B19
116 % of control	B20
102 % of control	B21
218 % of control	B22
102 % of control	B23
109 % of control	B24
102 % of control	B25
110 % of control	B26
